Laboratory results from PMC12160025, “Limitations of the radiotheranostic concept in neuroendocrine tumors due to lineage-dependent somatostatin receptor expression on hematopoietic stem and progenitor cells” (Theranostics, 2025).
Positions of bridges follow the written chain, without caps; N, C: chain ends. Non-standard residues stand in square brackets, D forms with d. Residues, ends and D or L forms follow the SMILES beside them. *: point of attachment. DOTA = O=C(O)CN1CCN(CC(=O)O)CCN(CC(=O)*)CCN(CC(=O)O)CC1; dPhe(4-NHCONH2) = NC(=O)Nc1ccc(C[C@@H](N)C(=O)O)cc1; Dihydroorotyl(S) = O=C1C[C@@H](C(=O)*)NC(=O)N1; Phe(4-Cl) = N[C@@H](Cc1ccc(Cl)cc1)C(=O)O; Phe(4-NH2) = Nc1ccc(C[C@H](N)C(=O)O)cc1

How the values were obtained:
[1] = tested on: human CD34+ HSPC subpopulations; assay: Cell proliferation (CellTrace Violet) and cell death after radioligand treatment; type: cell-based; details: 50 kBq/well, 4 days
Procedure: BMMCs were thawed in 90% IMDM with GlutaMAX, 10% FBS, and 20 µg/ml DNAse. Cells were washed and resuspended in cold FACS buffer for CD34+ isolation using the Miltenyi Biotec CD34 MicroBead Kit (#130-046-702) as per manufacturer instructions. CellTrace™ Violet (CTV, Thermo Scientific, C34557) staining was conducted based on the CD34^+ cell count (0.05 µl CTV/ml/ 1,500,000 cells) to determine the number of divisions undergone by a cell at the time of analysis. Following a 20 min incubation at 37 °C, the cells were centrifuged and resuspended in serum-free medium composed of IMDM with GlutaMAX and 20% BIT9500 (Stem Cell Technologies, 09500) supplemented with three cytokines involved in stem cell maintenance: SCF (50 ng/ml, PeproTech, 300-07), TPO (12.5 ng/ml, PeproTech, 300-18), andFlt3-L (50 ng/ml, PeproTech, 300-19). 30,000 cells were seeded in 24-well plates and analyzed by flow cytometry either immediately (day 0) or after a 4-day incubation period at 37 °C with 5% CO2 (day 4) following 30 min antibody staining and additional 15 min Annexin V (APC) binding (Biolegend, 640920). The antibodies used were as follow: CD34-APC-Cy7 (Biolegend, 343514), CD38-FITC (Biolegend, 356610), CD90-PE-Cy5 (Biolegend, 328112), CD123-PE (Biolegend, 306006), CD45RA-PE-Cy7 (Biolegend, 202316).
For radioligand treatment, cells were treated with 50 kBq/well (500 µl/well; 200 MBq/nmol) of^ 177Lu-DOTA-TOC or ^177Lu-DOTA-JR11 for the entire incubation period of 4 days. […] Untreated cells served as controls. A total of n=16 samples were analyzed.
In this experiment, flow cytometry was conducted on a Miltenyi MACSQuant analyzer equipped with three lasers - blue (488 nm, 30 mW), red (640 nm, 20mW), and violet (405 nm, 40 mW). For each sample, 50,000 events were recorded. MACSQuantify™ Software was used for data acquisition and Flowjo 9.0-10.10 (BD Biosciences, USA) was employed for flow cytometric data analysis. […] To simplify the comparison between groups, we calculated a “proliferation score” per sample. The proliferation score was defined as the weighted sum of all proliferations using the formula: "Proliferation score = 1*(% one division) + 2*(% two divisions) + 3*(% three division) + 4*(% four division) + 5*(% five divisions) + 6*(% six division) + 7* (% > six divisions). A higher weighted sum indicated more cell proliferation events.

[2] = human, in vivo; cited from earlier work
[3] = human, in vivo; cited from earlier work; remark: listed apart in the source
[4] = high-sensitivity samples (n = 8)

Question: What does the source list for `C[C@@H](O)[C@@H]1NC(=O)[C@H](CCCCN)NC(=O)[C@@H](Cc2ccc(NC(N)=O)cc2)NC(=O)[C@H](Cc2ccc(NC(=O)[C@@H]3CC(=O)NC(=O)N3)cc2)NC(=O)[C@H](NC(=O)[C@H](Cc2ccc(Cl)cc2)NC(=O)CN2CCN(CC(=O)O)CCN(CC(=O)O)CCN(CC(=O)O)CC2)CSSC[C@@H](C(=O)N[C@H](Cc2ccc(O)cc2)C(N)=O)NC1=O` [^177Lu-DOTA-JR11, metal not drawn] ({DOTA}-[Phe(4-Cl)][dC][Phe(4-NH2)](Dihydroorotyl(S))[dPhe(4-NHCONH2)]KTC[dY]-NH2; disulfide 2-7 (inferred); C-terminus assumed)?
Answer: Cell death compared to untreated cells ([1]; HSPC subpopulations): highest rates of cell death; Proliferation compared to untreated cells, across all subpopulations ([1]; n = 16, all HSPC subpopulations): 69-79%; Proliferation in HSC relative to untreated, mean ± SD [1, 4]: 42 ± 17%; Proliferation in HSC relative to untreated, median [1, 4]: 44%; Patients with prolonged grade 4 hematotoxicity [2]: 4 of 7; Incidence of t-MN [3]: 5%; Patients with t-MN [3]: 2/40
